In paper PMC9754112 (mAbs, 2022):

Experiments:
[1] = target: recombinant human CTLA-4-His-tag protein (Homo sapiens (Human).) (UniProt P16410); test: SPR
[2] = target: recombinant human CTLA-4-His-tag protein (Homo sapiens (Human)., UniProt P16410); test: SPR
Chain of recombinant human CTLA-4-His-tag protein (P16410 36-161): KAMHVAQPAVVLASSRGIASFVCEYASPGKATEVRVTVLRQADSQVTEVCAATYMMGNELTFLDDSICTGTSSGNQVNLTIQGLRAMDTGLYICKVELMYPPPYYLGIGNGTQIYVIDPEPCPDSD

Q: With ipilimumab (antibody) as the molecule, how does the Kd [1] read?
A: 16.1 nM

B1: JS007, humanized IgG1 anti-CTLA-4 monoclonal antibody (antibody, V domains shown)
VH: QVQLQESGPGLVKPSQTLSLTCTVSAYSITSGYYWNWIRQHPGKGLEWIGYIGYDGSNNYNPSLKSRVTISRDTSKNQFSLKLSSVTAADTAVYYCARDYYSGYFDSWGQGTTLTVSS
VL: DIQMTQSPSSLSASVGDRVTITCRASQNVGTYVAWYQQKPGKVPKPLIYSTSYRYSGVPSRFSGSGSGTDFTLTISSLQPEDVATYFCHQYDTYPLTFGAGTKLELK
Q: With B1 as the molecule, how does the Kd [2] read?
A: 0.21 nM
